Laboratory results reported in the DeepSol protein solubility set.

test: soluble on expression in E. coli; label from the status in PepcDB or PDB records

Sequence	soluble on expression in E. coli
MSHLNYETRLPLGQATIDHFMGLPAHPTKCQATYVWIDGTGEHLRAKTRTINTKPQYLSEYPIWNYDGSSTGQADGLNSDRYLRPVAVFPDPFLGGLNVLVMCDTLDHEMKPTATNHRQMCAELMKKVSDQQPWFGMEQEYLIVDRDEHPLGWPKHGYPAPQGKYYCGIGADRAFGREVVETHYRACLHAGITIFGSNAEVTPGQWEFQIGTCLGIEMGDQLWMARYILHRVAEQFGVCVSLDPKPRVTMGDWNGAGCHTNFSTIDMRRPDGLETIIAAMEGLKKTHSEAMKVYDPNGGHDNLRRLTGRHETSQADQFSWGIANRACSVRIPRQVADEGRGYLEDRRPSSNCDPYLVTAMIVKSVLIN	not soluble
MIKMAQLEDIRKMYFMEGLSIREINRRTGIHRDTISKYISLEEPKPPKYKLTKERTHPVLGPYIPMIKQIIEDDKTRHRKQRHTGTKIFETLKKEGFSGGYNTVMDYLRKEYRKQREAFLPLEFELGAYAEVDWTEAYFYLKGKETKAHLFVMKLRGSGGFYVRAYPFEKQEAFFDGHIKCFEFMNG	not soluble
MAGDPMIRKPAVAGYFYPSNRNELLSLISSFHVQQSEVSCQPIGVVVPHAGIVYSGRTAMYSYNALRNSSIRDFIIIGPNHRPMTPYASIFPSGSWETPLGNAIINEELASELYKNSQYIVKDEESHSVEHSIEVQIPFLQYMFGNSFTFVPVILGDQEKVVANDIASALMRLSKPYILIASSDFTHYERSDIVERKDMDLISRIVDLDIDGFYDTIERENVTACGYGAIAILMIIAKKIGAKISLLNHSNSGDVTNDYDEVVGYSSIVACRQILEHHHHHH	not soluble
MSLSVADIAYVVFNHVDLLEAERFYTDFGLTVAYRNEFEVAFRPAMERSYCYVARKADKPGLVSIGLSAASQEDLVVAAQFPEASPIQAIERPGGGQVVRLTSPDGVNFELVHGIDVYPARPVRDALSINTGIVKTRHGQWQRPELEPASILRLGHVALLTGDFKTNAQWLRSRFGFMPSDVLFADAPENQVGAFFHCTGGNPWTDHHTLALFPSDGSRMHHCSFEIQDLDAQFLGNKWLASRGWKPGWGVGRHILGSQIFDYWFDPAGNLVEHFTDGDLIQAGAAPGMHPLDDDALAMWGPPLTASKFVAMAAREGHHHHHH	soluble
MGHHHHHHSHRNLDSRTFITIGDRNFEVEADDLVTISELGRGAYGVVEKVRHAQSGTIMAVKRIRATVNSQEQKRLLMDLDINMRTVDCFYTVTFYGALFREGDVWICMELMDTSLDKFYRKVLDKNMTIPEDILGEIAVSIVRALEHLHSKLSVIHRDVKPSNVLINKEGHVKMCDFGISGYLVDSVAKTMDAGCKPYMAPERINPELNQKGYNVKSDVWSLGITMIEMAILRFPYESWGTPFQQLKQVVEEPSPQLPADRFSPEFVDFTAQCLRKNPAERMSYLELMEHPFFTLHKTKKTDIAAFVKEILGEDS	not soluble
MSELNKEMTLLPPPELVQYVGGDFKKVGKEFLKHFIQIGALKSNEKVLDVGCGVGRMAVPLMNYLNDDGAYYGFDLFKDGITWCQNNISTMRNNFHFEHVDIYNQFYNPEGKEDASQYRFPYEDGTFDFIFLTSVFTHLLPKELEHYVSEIVRVLKKDGRCFITFFLINPESSYYLNAGQSTLGFYHRIENCYVVNKDIPNFAVAYPETDICNLLNKYGLEIINKPHYGLWCGRHEYTSYQDIVLTKKSFLEHHHHHH	soluble
MKNMIKAASLGLIILSSSMMANAAEAAQKIGYINTAQVFQALPQREVVLQKMQEEFKDKAAELQAIQADAKTKIEKLKRDGQLMGQDEVEKLRIEIGQLDSKYKIKAQALEQASARREAEEKQKLFKVIQDAVKKVAEKEGYDIVLDTSSMQYGKPEHNLSEKVIKAIK	not soluble
MPRKAREYPEEGEFVVATVKRIHNYGAFLELDEYPGKEAFMHISEVASTWVRNIRDYLKEGQKVVAKVIRVDPRKGHIDLSLRRVTQQQRKAKLQEFKRAQKAENLLRLAAEKLGKDFEAAWREVWVPLEEEWGEVYAAFEDAAKDGIEVLKGHVPDEWLPVLKEIVENYVEVPTVTIDAEFEITVPKPNGVEIIKEALIRARDRANKEKDIEVKFTYQGAPRYRIDITAPDYYKAEEVLEDIAEEILRVIKQAGGEATLLRKEKRIRKVKKRKK	soluble
MSLKTVVVSGASVAGTAAAYWLGRHGYSVTMVERHPGLRPGGQAIDVRGPALDVLERMGLLAAAQEHKTRIRGASFVDRDGNELFRDTESTPTGGPVNSPDIELLRDDLVELLYGATQPSVEYLFDDSISTLQDDGDSVRVTFERAAAREFDLVIGADGLHSNVRRLVFGPEEQFVKRLGTHAAIFTVPNFLELDYWQTWHYGDSTMAGVYSARNNTEARAALAFMDTELRIDYRDTEAQFAELQRRMAEDGWVRAQLLHYMRSAPDFYFDEMSQILMDRWSRGRVALVGDAGYCCSPLSGQGTSVALLGAYILAGELKAAGDDYQLGFANYHAEFHGFVERNQWLVSDNIPGGAPIPQEEFERIVHSITIKDYEGHHHHHH	not soluble
AIAGSRGVLSIIFDLDNTLIDTAGAGRTAIQKVCELLKSTHVQESHIRDICERFLRKLLQESFDPSEGKTIDDVRIQHWCEALQETPGTDPDPALASRCYYTWKNTRSQALSLSSEVRALLEELQKNYKLLLLTNGDTQTQREKIEAVRCEGLFSLVVVGGDRPEQKPARSIFTHCFESAGVRPQDCIMVGDSLTTDIQGGINAGVRATVWINAGSKSLPQDSVTPDYTLPTVLHLNEVLAQLA	soluble
MTAYINQEAAAKLDEVFPLAELALKAYGPEFQGELSLLTHSENSTYLVNAFSGQRFVMRVHRAHYHSRTAIESELAWLDALADEGMEVPKAIAGRDGAKVQTIGDGHAERREVVLFHWINGYQPDQSQQESLIQGFRRLGEITAGLHIHARQWQRPHWFERRLMVGAHAAWGNWQKAPYLDKPGAAIIGKALDKVRMELNEYGNAADLFGLIHADLRLTNLLVEEEITRIIDFDDCGFSWFMHDLAAAVSFIEHSPCLNEWVGSWVNGYSTVLPLSAADHAVIPALITQRRVQLLAWTGTHQGAPQADGLGNIWVVQTIELCEKYLANTLLDCKSIS	not soluble
MTTNYVLRKPWRWLTISKDMMINEQIRAREVRLVGANGDQLGIKSRNDALDLAANLNLDLVLVAPNAKPPVCRIMDYGKFRFEQQKKEKEQRKNQKVISMKEVRLSPTIDEHDFNTKLRNAIKFLEKGDKVKASIRFKGRAITHKEIGQRVLDRFSEACAEVSTIESKPKMEGRSMFLVLAPKNDK	not soluble
MVDPQLDGPQLAALAAVVELGSFDAAAERLHVTPSAVSQRIKSLEQQVGQVLVVREKPCRATTAGIPLLRLAAQTALLESEALAEMGGNASLKRTRITIAVNADSMATWFSAVFDGLGDVLLDVRIEDQDHSARLLREGVAMGAVTTERNPVPGCRVHPLGEMRYLPVASRPFVQRHLSDGFTAAAAAKAPSLAWNRDDGLQDMLVRKAFRRAITRPTHFVPTTEGFTAAARAGLGWGMFPEKLAASPLADGSFVRVCDIHLDVPLYWQCWKLDSPIIARITDTVRAAASGLYRGQQRRRRPG	soluble
MARKNLIGISESPLAPEDGERPAVGRPIAGLAPAQRSTGLVGGITRSLSNITQKVERAEELERQLADGHAIVELDPELIDSSFIIDRLGVAPDVQAMLVQQIRDHGQQVPILVRPHPAESGRYQVAYGHRRLAALREIGIKVKAVIRNLNDEQLVISQGQENNARTDLSFIERALFATRLEDRGFSRDTIMSALGVDKAALSKMIAVVRRLPLDIIEAIGAAPGFGRRRWMELADLIDRDDRRPKALHFIETAAFKALESDQRFEKLFALLSLARKPSKAETWIAPDRSRPVRIRETDAETTLAFSKKAAPGFAEFVRQRLEALYLEYQRETGD	not soluble
MSLAESQLSKLDVNLQSLNPYTFSKTRCIVNLHISDDTKNRDPSTTNGSYSNSQLLSNGEHVCYHFSQDYCVLSIYPVTDAITGKTVVVHLPHETFNDHHTFTMAEEDGCIVMDLILKTGLFLTLRFSLEYLFNRNADINSSWYSLLKPYDFTVRLPDYLYKVNSALSIVYLNDGGLLGLQKTQTSGSDEYDLHPVLFNDNSYFQSFTRFFSHNDSGRENVVSSVSYGDYHLLTLTENCKLRIWDLRTNSVTAQLNLITDPQDKHRKYESIGPYLALLDSVLVVFLPFGNGAFRTFQLSVNNSGGLVLTPRGELIRTNLSTASIWSLVDTKLTKPFELNIETSYLQMVVLWKSNTSIKLQILNFETEALDKHSWVEASNKSLPDILDNDILGDNFEQSLLDLKAHYTPAIYEEAQRILSANGIIFVPSQQNNDEYLSNLESILKDLKKHHDEPSSLTLYNGEVVMVNTLYLYNHFVYKINSKLESFYYNLTSEGHHHHHH	soluble
MGSDKIHHHHHHMTMDKLLTVCGLSLEVARTGQQVVKSVSFDLAPGEIFGIVGESGSGKTLATRALISLLPPTIKVADGSVSYKGRDVLKMKENELRHLRGAEIGVVFQEPMTSLNPSMTIGRQLEEGLILHTKASAQERRSLILDMLKRVGIRDPEGALSSYPHEFSGGMRQRIMLASVMLLKPALLIADEPTTALDAVIQRDVMELMVELTRAEGTAILLISHDLPMVARYTSRIVVMEKGAIVEKGRTEDLLKAPQHPYTKKLLSSLPFRGRPRQIDLTSVPMISARDIIVDYAGRKSLFRKNKPKRALHGVSIDIHEGEVVALVGGSGSGKTTLGRTIAGLVTESEGRIQFQGRPRTENWTDYRLNCQMVFQDPYSSLDPRMTIEALVEEALRPVPGLDGKAKRKRTLETLEEVGLGVDYAGRYPHELSGGQRQRVAIARAIARRPRFLIADEPVSALDVTVRAQVLDLFSDLQKRYGFSCLFISHDLGVVEQVADRVVVMQDGRIIEEGDRDTIFDSPKEAYTRRLLSAIPALDQNEKGGVTLKWRLEN	not soluble
MGASSSSSVSEKSIHQFTVKDSSGKEVDLSVYQGKVLLVVNVASKCGFTESNYTQLTELYRKYKDQGFVVLAFPCNQFLSQEPGTSEEAHQFACTRFKAEYPVFQKVRVNGQNAAPVYKFLKSKKPSFLGSRIKWNFTKFLVGKDGQVIDRYGTTVSPLSIQKDIEKALAQEL	soluble
QCSSEVTARYKATLLKGNSLTDLTGGFGIDCAFLAARFKSATYVERQQELCEIAAHNFPILNLNHINVKNEDGVSYLQAMSPVDCIFLDPARRNEHGGKTVAISDCEPDVAELEELLLNKAEQVMVKLSPM	not soluble
MSLDNKGDIWYDLISAVHKSIRGSDPDAALYWAARMISAGCDPLYIARRLLAIASEDVGNADPRGMQVALAAWDCFTRVGPAEGERAIAQAIVYLACAPKSNAVYTAWKQALSDAHNLPEFEVPPHLRNAPTRLMKDLGYGEEYRYAHDEPGAYAAGECYFPPEMSGTRYYQPTPRGLETKIAEKLAYLADLNAKSPQKEGHHHHHH	soluble
MNIERKQAKQKEISSGHSFLEWGMTILKMPPAKRIKMVRDGVKVTHLVGAGRYYGISQAKLSKLLGISDATITRKIRSSGKLGPLESERLARIALIEAEAEKVFDSSDLAKRWMLESNLALGESPLSLLDTDMGADEVRKVLASIAYGGIA	not soluble
MGSDKIHHHHHHMQPEIRKIVTYDEEVLIEGFRKADAPWRMFAIACVVRNPWAGRFVEDLKPEIMAYGPVLGELMTERMITLAGSGDAIEAYGKAAIVGVDGEVEHASGLIHTLRFGNFFREAVGANSYLAFTNTRGPANAPIMVPLMDKNDAGRRSHYLTIQFAIPDAPRADEIVVLLGAATSGRPHHRIGDRYQDLKDLGHDLDNPAAV	not soluble
